Results taken from the Human Domainome abundance scans (Beltran et al. 2025).
± gives the uncertainty stated by the source.

B1: Cyclin-F, residues 28 to 80; numbered along this chain, P41002 (parent)
chain: RNLTILSLPEDVLFHILKWLSVEDILAVRAVHSQLKDLVDNHASVWACASFQE

Variants of: B1
Assay: abundance fitness (aPCA) (normalised: wild type 0, dead -1); higher = more abundant; growth selection in yeast, the domain comes from the species named
Settings: Homo sapiens

Variant | abundance fitness
RNLTILSLPEDVLFHILKWLSVEDILAVRAVHSQLKDLVDNHASVTACASFQE | -0.3 ± 0.1
RNLTILSLPEDVLFHILKWLSVEDILAVRAVHSQLKDLVDNHASVVACASFQE | -0.415 ± 0.1
RNLTILSLPEDVLFHILKWLSVEDILAVRAVHSQLKDLVDNHASVYACASFQE | -0.469 ± 0.2
RNLTILSLPEDVLFHILKWLSVEDILAVRAVHSQLKDLVDNHASVWCCASFQE | -0.218 ± 0.13
RNLTILSLPEDVLFHILKWLSVEDILAVRAVHSQLKDLVDNHASVWDCASFQE | -0.062 ± 0.15
RNLTILSLPEDVLFHILKWLSVEDILAVRAVHSQLKDLVDNHASVWECASFQE | -0.365 ± 0.14
RNLTILSLPEDVLFHILKWLSVEDILAVRAVHSQLKDLVDNHASVWFCASFQE | 0.386 ± 0.18
RNLTILSLPEDVLFHILKWLSVEDILAVRAVHSQLKDLVDNHASVWGCASFQE | 0.193 ± 0.08
RNLTILSLPEDVLFHILKWLSVEDILAVRAVHSQLKDLVDNHASVWHCASFQE | -0.29 ± 0.26
RNLTILSLPEDVLFHILKWLSVEDILAVRAVHSQLKDLVDNHASVWICASFQE | -0.178 ± 0.23
RNLTILSLPEDVLFHILKWLSVEDILAVRAVHSQLKDLVDNHASVWKCASFQE | -0.181 ± 0.16
RNLTILSLPEDVLFHILKWLSVEDILAVRAVHSQLKDLVDNHASVWLCASFQE | -0.235 ± 0.096
RNLTILSLPEDVLFHILKWLSVEDILAVRAVHSQLKDLVDNHASVWMCASFQE | -0.095 ± 0.13
RNLTILSLPEDVLFHILKWLSVEDILAVRAVHSQLKDLVDNHASVWNCASFQE | -0.088 ± 0.21
RNLTILSLPEDVLFHILKWLSVEDILAVRAVHSQLKDLVDNHASVWRCASFQE | -0.14 ± 0.094
RNLTILSLPEDVLFHILKWLSVEDILAVRAVHSQLKDLVDNHASVWSCASFQE | -0.114 ± 0.13
RNLTILSLPEDVLFHILKWLSVEDILAVRAVHSQLKDLVDNHASVWTCASFQE | -0.43 ± 0.15
RNLTILSLPEDVLFHILKWLSVEDILAVRAVHSQLKDLVDNHASVWVCASFQE | -0.513 ± 0.12
RNLTILSLPEDVLFHILKWLSVEDILAVRAVHSQLKDLVDNHASVWWCASFQE | -0.374 ± 0.12
RNLTILSLPEDVLFHILKWLSVEDILAVRAVHSQLKDLVDNHASVWYCASFQE | -0.458 ± 0.23
RNLTILSLPEDVLFHILKWLSVEDILAVRAVHSQLKDLVDNHASVWAAASFQE | -0.232 ± 0.11
RNLTILSLPEDVLFHILKWLSVEDILAVRAVHSQLKDLVDNHASVWADASFQE | -0.14 ± 0.2
RNLTILSLPEDVLFHILKWLSVEDILAVRAVHSQLKDLVDNHASVWAFASFQE | -0.364 ± 0.13
RNLTILSLPEDVLFHILKWLSVEDILAVRAVHSQLKDLVDNHASVWAGASFQE | 0.179 ± 0.088
RNLTILSLPEDVLFHILKWLSVEDILAVRAVHSQLKDLVDNHASVWAHASFQE | -0.302 ± 0.15

Variant | abundance fitness
RNLTILSLPEDVLFHILKWLSVEDILAVRAVHSQLKDLVDNHASVWAIASFQE | -0.306 ± 0.18
RNLTILSLPEDVLFHILKWLSVEDILAVRAVHSQLKDLVDNHASVWAKASFQE | -0.307 ± 0.16
RNLTILSLPEDVLFHILKWLSVEDILAVRAVHSQLKDLVDNHASVWALASFQE | 0.075 ± 0.085
RNLTILSLPEDVLFHILKWLSVEDILAVRAVHSQLKDLVDNHASVWAMASFQE | -0.238 ± 0.13
RNLTILSLPEDVLFHILKWLSVEDILAVRAVHSQLKDLVDNHASVWANASFQE | 0.184 ± 0.17
RNLTILSLPEDVLFHILKWLSVEDILAVRAVHSQLKDLVDNHASVWAPASFQE | 0.42 ± 0.12
RNLTILSLPEDVLFHILKWLSVEDILAVRAVHSQLKDLVDNHASVWAQASFQE | -0.246 ± 0.17
RNLTILSLPEDVLFHILKWLSVEDILAVRAVHSQLKDLVDNHASVWARASFQE | -0.321 ± 0.1
RNLTILSLPEDVLFHILKWLSVEDILAVRAVHSQLKDLVDNHASVWASASFQE | 0.14 ± 0.095
RNLTILSLPEDVLFHILKWLSVEDILAVRAVHSQLKDLVDNHASVWATASFQE | -0.066 ± 0.12
RNLTILSLPEDVLFHILKWLSVEDILAVRAVHSQLKDLVDNHASVWAVASFQE | -0.406 ± 0.093
RNLTILSLPEDVLFHILKWLSVEDILAVRAVHSQLKDLVDNHASVWAWASFQE | -0.312 ± 0.11
RNLTILSLPEDVLFHILKWLSVEDILAVRAVHSQLKDLVDNHASVWAYASFQE | -0.367 ± 0.12
RNLTILSLPEDVLFHILKWLSVEDILAVRAVHSQLKDLVDNHASVWACCSFQE | -0.185 ± 0.12
RNLTILSLPEDVLFHILKWLSVEDILAVRAVHSQLKDLVDNHASVWACDSFQE | 0.248 ± 0.12
RNLTILSLPEDVLFHILKWLSVEDILAVRAVHSQLKDLVDNHASVWACESFQE | -0.125 ± 0.14
RNLTILSLPEDVLFHILKWLSVEDILAVRAVHSQLKDLVDNHASVWACFSFQE | -0.663 ± 0.24
RNLTILSLPEDVLFHILKWLSVEDILAVRAVHSQLKDLVDNHASVWACGSFQE | 0.089 ± 0.073
RNLTILSLPEDVLFHILKWLSVEDILAVRAVHSQLKDLVDNHASVWACHSFQE | -0.091 ± 0.16
RNLTILSLPEDVLFHILKWLSVEDILAVRAVHSQLKDLVDNHASVWACISFQE | -0.409 ± 0.23
RNLTILSLPEDVLFHILKWLSVEDILAVRAVHSQLKDLVDNHASVWACKSFQE | 0.17 ± 0.13
RNLTILSLPEDVLFHILKWLSVEDILAVRAVHSQLKDLVDNHASVWACLSFQE | -0.395 ± 0.1
RNLTILSLPEDVLFHILKWLSVEDILAVRAVHSQLKDLVDNHASVWACMSFQE | -0.51 ± 0.18
RNLTILSLPEDVLFHILKWLSVEDILAVRAVHSQLKDLVDNHASVWACPSFQE | 0.126 ± 0.13
RNLTILSLPEDVLFHILKWLSVEDILAVRAVHSQLKDLVDNHASVWACQSFQE | 0.088 ± 0.15

Variant | abundance fitness
RNLTILSLPEDVLFHILKWLSVEDILAVRAVHSQLKDLVDNHASVWACRSFQE | 0.037 ± 0.08
RNLTILSLPEDVLFHILKWLSVEDILAVRAVHSQLKDLVDNHASVWACSSFQE | 0.092 ± 0.078
RNLTILSLPEDVLFHILKWLSVEDILAVRAVHSQLKDLVDNHASVWACVSFQE | -0.609 ± 0.11
RNLTILSLPEDVLFHILKWLSVEDILAVRAVHSQLKDLVDNHASVWACWSFQE | -0.443 ± 0.12
RNLTILSLPEDVLFHILKWLSVEDILAVRAVHSQLKDLVDNHASVWACYSFQE | -0.341 ± 0.25
RNLTILSLPEDVLFHILKWLSVEDILAVRAVHSQLKDLVDNHASVWACADFQE | 0.029 ± 0.14
RNLTILSLPEDVLFHILKWLSVEDILAVRAVHSQLKDLVDNHASVWACAEFQE | -0.114 ± 0.16
RNLTILSLPEDVLFHILKWLSVEDILAVRAVHSQLKDLVDNHASVWACAFFQE | -0.668 ± 0.11
RNLTILSLPEDVLFHILKWLSVEDILAVRAVHSQLKDLVDNHASVWACAHFQE | -0.319 ± 0.16
RNLTILSLPEDVLFHILKWLSVEDILAVRAVHSQLKDLVDNHASVWACAKFQE | -0.03 ± 0.13
RNLTILSLPEDVLFHILKWLSVEDILAVRAVHSQLKDLVDNHASVWACALFQE | -0.485 ± 0.099
RNLTILSLPEDVLFHILKWLSVEDILAVRAVHSQLKDLVDNHASVWACAMFQE | -0.483 ± 0.17
RNLTILSLPEDVLFHILKWLSVEDILAVRAVHSQLKDLVDNHASVWACANFQE | -0.394 ± 0.27
RNLTILSLPEDVLFHILKWLSVEDILAVRAVHSQLKDLVDNHASVWACAPFQE | -0.1 ± 0.12
RNLTILSLPEDVLFHILKWLSVEDILAVRAVHSQLKDLVDNHASVWACAQFQE | 0.105 ± 0.12
RNLTILSLPEDVLFHILKWLSVEDILAVRAVHSQLKDLVDNHASVWACATFQE | -0.166 ± 0.13
RNLTILSLPEDVLFHILKWLSVEDILAVRAVHSQLKDLVDNHASVWACAVFQE | -0.621 ± 0.14
RNLTILSLPEDVLFHILKWLSVEDILAVRAVHSQLKDLVDNHASVWACAWFQE | -0.434 ± 0.098
RNLTILSLPEDVLFHILKWLSVEDILAVRAVHSQLKDLVDNHASVWACAYFQE | -0.369 ± 0.2
RNLTILSLPEDVLFHILKWLSVEDILAVRAVHSQLKDLVDNHASVWACASAQE | -0.138 ± 0.091
RNLTILSLPEDVLFHILKWLSVEDILAVRAVHSQLKDLVDNHASVWACASEQE | -0.38 ± 0.14
RNLTILSLPEDVLFHILKWLSVEDILAVRAVHSQLKDLVDNHASVWACASGQE | -0.158 ± 0.079
RNLTILSLPEDVLFHILKWLSVEDILAVRAVHSQLKDLVDNHASVWACASHQE | -0.123 ± 0.31
RNLTILSLPEDVLFHILKWLSVEDILAVRAVHSQLKDLVDNHASVWACASIQE | -0.111 ± 0.17
RNLTILSLPEDVLFHILKWLSVEDILAVRAVHSQLKDLVDNHASVWACASKQE | -0.202 ± 0.18

Variant | abundance fitness
RNLTILSLPEDVLFHILKWLSVEDILAVRAVHSQLKDLVDNHASVWACASLQE | 0.092 ± 0.096
RNLTILSLPEDVLFHILKWLSVEDILAVRAVHSQLKDLVDNHASVWACASMQE | 0.085 ± 0.11
RNLTILSLPEDVLFHILKWLSVEDILAVRAVHSQLKDLVDNHASVWACASPQE | -0.184 ± 0.15
RNLTILSLPEDVLFHILKWLSVEDILAVRAVHSQLKDLVDNHASVWACASRQE | -0.187 ± 0.09
RNLTILSLPEDVLFHILKWLSVEDILAVRAVHSQLKDLVDNHASVWACASSQE | -0.194 ± 0.11
RNLTILSLPEDVLFHILKWLSVEDILAVRAVHSQLKDLVDNHASVWACASTQE | -0.014 ± 0.11
RNLTILSLPEDVLFHILKWLSVEDILAVRAVHSQLKDLVDNHASVWACASVQE | -0.034 ± 0.083
RNLTILSLPEDVLFHILKWLSVEDILAVRAVHSQLKDLVDNHASVWACASWQE | -0.279 ± 0.13
RNLTILSLPEDVLFHILKWLSVEDILAVRAVHSQLKDLVDNHASVWACASYQE | -0.215 ± 0.24
RNLTILSLPEDVLFHILKWLSVEDILAVRAVHSQLKDLVDNHASVWACASFCE | -0.213 ± 0.2
RNLTILSLPEDVLFHILKWLSVEDILAVRAVHSQLKDLVDNHASVWACASFDE | -0.296 ± 0.27
RNLTILSLPEDVLFHILKWLSVEDILAVRAVHSQLKDLVDNHASVWACASFEE | -0.39 ± 0.22
RNLTILSLPEDVLFHILKWLSVEDILAVRAVHSQLKDLVDNHASVWACASFFE | -0.241 ± 0.22
RNLTILSLPEDVLFHILKWLSVEDILAVRAVHSQLKDLVDNHASVWACASFHE | -0.108 ± 0.33
RNLTILSLPEDVLFHILKWLSVEDILAVRAVHSQLKDLVDNHASVWACASFIE | -0.109 ± 0.48
RNLTILSLPEDVLFHILKWLSVEDILAVRAVHSQLKDLVDNHASVWACASFKE | 0.011 ± 0.17
RNLTILSLPEDVLFHILKWLSVEDILAVRAVHSQLKDLVDNHASVWACASFLE | -0.07 ± 0.097
RNLTILSLPEDVLFHILKWLSVEDILAVRAVHSQLKDLVDNHASVWACASFME | -0.256 ± 0.29
RNLTILSLPEDVLFHILKWLSVEDILAVRAVHSQLKDLVDNHASVWACASFNE | -0.286 ± 0.19
RNLTILSLPEDVLFHILKWLSVEDILAVRAVHSQLKDLVDNHASVWACASFPE | -0.377 ± 0.16
RNLTILSLPEDVLFHILKWLSVEDILAVRAVHSQLKDLVDNHASVWACASFRE | -0.02 ± 0.1
RNLTILSLPEDVLFHILKWLSVEDILAVRAVHSQLKDLVDNHASVWACASFTE | -0.135 ± 0.11
RNLTILSLPEDVLFHILKWLSVEDILAVRAVHSQLKDLVDNHASVWACASFVE | -0.123 ± 0.1
RNLTILSLPEDVLFHILKWLSVEDILAVRAVHSQLKDLVDNHASVWACASFWE | -0.19 ± 0.18
